In patent US20160280792A1 (Kyowa Kirin, published 2016) one finds binding result and Kd data, which are given here for one molecule.

The target of assay [1] is T1, IL-3Rα/GM-CSFRα chimeric protein, region 1 (55-DADYSMP-61) of IL-3Rα replaced by GM-CSFRα sequence, on … (human, UniProt P26951 19-378).
T1 construct: Built on IL-3RA-FLAG/pEGFP-N1; they are my translation of the primers; also called Region 1 (A)
T1 chain: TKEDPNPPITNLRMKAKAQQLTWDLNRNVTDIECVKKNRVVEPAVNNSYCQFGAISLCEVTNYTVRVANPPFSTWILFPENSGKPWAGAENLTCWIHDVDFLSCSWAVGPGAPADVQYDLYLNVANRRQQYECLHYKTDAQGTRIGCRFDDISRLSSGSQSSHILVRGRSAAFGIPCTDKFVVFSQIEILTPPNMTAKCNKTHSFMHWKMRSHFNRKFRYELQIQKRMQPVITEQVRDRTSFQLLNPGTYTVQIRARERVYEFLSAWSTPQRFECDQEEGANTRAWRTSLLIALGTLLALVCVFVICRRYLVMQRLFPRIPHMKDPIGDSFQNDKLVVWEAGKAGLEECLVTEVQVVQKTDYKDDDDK
Kind of assay: flow cytometry, labelled antibody at 1 µg/ml, HEK293T cells expressing the construct. On the technique in general: In flow cytometry, cells or beads pass a laser one at a time.

For assay [2], the target named is T2, soluble form of human IL-3Rα protein (extracellular region with C-terminal FLAG tag) (human, UniProt P26951 19-305).
T2 construct: Made in CHOras1 cells, purified on anti-FLAG gel; also called soluble form of IL-3Rα protein; soluble form of human IL-3Rα extracellular region
T2 sequence: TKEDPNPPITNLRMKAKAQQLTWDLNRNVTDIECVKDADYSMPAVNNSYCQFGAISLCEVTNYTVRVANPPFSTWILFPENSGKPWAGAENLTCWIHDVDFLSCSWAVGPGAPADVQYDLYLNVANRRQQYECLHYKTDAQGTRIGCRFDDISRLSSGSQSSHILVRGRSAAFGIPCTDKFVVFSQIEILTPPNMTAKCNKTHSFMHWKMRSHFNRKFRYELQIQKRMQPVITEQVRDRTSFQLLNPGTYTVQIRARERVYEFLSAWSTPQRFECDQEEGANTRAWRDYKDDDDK
Description: SPR (Biacore 2000): antibody captured on anti-mouse antibody CM5 chip, soluble IL-3Rα as analyte, 1:1 Langmuir fit. The procedure:
Specifically, CM5 (research grade) was used for a sensor tip (each GE). Firstly, the CM5 tip was activated by applying an equivalent mixture of 400 mM EDC (N-ethyl-N′-(3-dimethylaminopropyl)carbodiimidehydrochloride) and 100 mM NHS (N-hydroxysuccinimide) to the CM5 tip. Next, an antibody to the human antibody attached to the Human Antibody Capture Kit (GE) (hereinafter, referred to as anti-human antibody antibody) was diluted with the solution attached to the kit and applied thereto, thereby immobilizing the required amount of the anti-human antibody antibody to the CM5 tip. Regarding the mouse antibody to be used as a control, an antibody to the mouse antibody attached to the Mouse Antibody Capture Kit (GE) (hereinafter, referred to as anti-mouse antibody antibody) was diluted with the solution attached to the kit and applied thereto, thereby immobilizing a necessary amount thereof to the CM5 tip. […]
In the analysis, Biaevaluation software (GE) was used and Biaevaluation Software Handbook was referred. Specifically, by carrying out simultaneous analysis of kinetics analysis, employing basically the 1:1 Langmuir binding reaction model and fitting, association rate constant (Ka) and dissociation rate constant (Kd) were calculated, and the value of dissociation constant KD was calculated by the calculation of Kd/Ka.
A general note: SPR reads the build-up and loss of mass on a sensor chip optically.

For assay [3], the target named is T3, IL-3Rα/GM-CSFRα chimeric protein, A domain of IL-3Rα replaced by that of GM-CSFRα, on HEK293T cells (human, UniProt P15509 23-114).
T3 construct: domain: A domain; The KpnI site (GGTACC) at the junction encodes an extra Gly-Thr; also called A domain substitution
T3 sequence: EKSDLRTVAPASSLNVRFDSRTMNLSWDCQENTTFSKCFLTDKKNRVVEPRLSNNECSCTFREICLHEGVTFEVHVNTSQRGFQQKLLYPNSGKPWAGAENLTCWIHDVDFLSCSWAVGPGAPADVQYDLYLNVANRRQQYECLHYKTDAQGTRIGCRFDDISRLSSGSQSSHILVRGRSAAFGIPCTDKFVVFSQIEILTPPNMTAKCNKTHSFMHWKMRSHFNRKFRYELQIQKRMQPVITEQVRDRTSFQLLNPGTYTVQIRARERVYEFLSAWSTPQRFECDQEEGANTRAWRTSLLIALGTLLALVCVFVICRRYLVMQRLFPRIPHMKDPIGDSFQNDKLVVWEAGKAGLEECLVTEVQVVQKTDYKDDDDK
Description: flow cytometry, labelled antibody at 1 µg/ml, HEK293T cells expressing the construct. How it is done: HEK293T cell (ATCC CRL 1268) was used for the preparation of the IL-3Rα/GM-CSFRα chimeric protein expression cell. Using 293Fectin (Invitrogen), the plasmid DNA obtained in the above was introduced as an expression vector into the HEK293T. The HEK293T to which the expression vector was introduced was cultured using a shaker under conditions of 5% CO₂ and 37° C. after 2 days of the introduction, the […] was used for in the flow cytometry analysis.
From 100,000 to 1,000,000 cells of the chimeric protein expression cell were allowed to react for 30 minutes on ice with at a concentration of 1 μg/ml with an AlexaFlour488-labeled human antibody or a commercially available FITC-labeled anti-IL-3Rα mouse antibody (7G3 or 9F5: both from BD Biosciences, 6H6: Acris Antibodies, AC145: Milteny Biotech, 107D2.08: Dendritics). A staining medium (Dulbecco's PBS supplemented with 2% fetal bovine serum, 2 mM EDTA and 0.05% NaN₃) was used for the dilution of antibodies and cells. Next, the cells reacted with antibodies were washed three times with the staining medium and whether the labeled antibody bound to the cell was confirmed by flow cytometry.

B1: anti-human IL-3Rα mouse antibody 7G3 (antibody, V domains shown)
VH: EVQLQQSGPELVKPGASVKMSCKASGYTFTDYYMKWVKQSHGKSLEWIGDIIPSNGATFYNQKFKGKATLTVDRSSSTAYMHLNSLTSEDSAVYYCTRSHLLRASWFAYWGQGTLVTVSA
VL: DFVMTQSPSSLTVTAGEKVTMSCKSSQSLLNSGNQKNYLTWYLQKPGQPPKLLIYWASTRESGVPDRFTGSGSGTDFTLTISSVQAEDLAVYYCQNDYSYPYTFGGGTKLEIK
notes: Mouse antibody; the material used in flow cytometry was bought (BD Biosciences, FITC-labelled); Light chain start see note of m7; also called 7G3 (Mouse antibodies); FITC-labeled 7G3 (BD Biosciences)
Consider B1, for which the binding result in assay [1] and in assay [3] was “no binding (tested: 1 µg/ml)” in each case. In assay [2], this molecule displayed a dissociation constant (Kd) of 0.566 nM.

As a reminder, the Kd is the equilibrium constant for the complex coming apart. Higher therefore signals lower affinity.
